Reference: PMC3498381, “Isolated Toll-like Receptor Transmembrane Domains Are Capable of Oligomerization” (PLoS ONE, 2012)
No end group written: not given here.

How the values were obtained:
[1] = tested on: homotypic TMD-TMD interaction (ToxR / ctx promoter / β-galactosidase reporter in FHK12 E. coli); assay: Homotypic ToxR reporter assay (β-galactosidase); format: cell-based; conditions: β-galactosidase Miller units normalized to GpA signal and expression levels; FHK12 E. coli; 3 replicates with >6 measurements each, N in table
Description: . Various plasmid constructs for this assay make it possible to monitor both homotypic and heterotypic interactions that are driven by TMD-TMD association (Fig. S1).
We first investigated homotypic interactions because the majority of the TLR family members function as homodimers. […] This ΔTM construct consists of the same maltose binding protein and ToxR domain, but lacks a TMD for proper membrane insertion (Fig. S2). Statistical analysis using the Tukey-Kramer test was performed to analyze any significant differences between all possible pairs of average interaction potentials (Table S2). […] Among the TLRs, no discernable differences in grouping based on statistical analysis at p = 0.05 were indicated as all receptors belonged to multiple groups, except for TLR1, which with the lowest interaction potential among the family of receptors only existed in one group (Table S1).
Figure 2 Toll-like Receptor Transmembrane Domain Homotypic Interactions. (A) The ToxR assay was used to study homotypic interactions of the TLR TMDs. A chimeric protein expressing the TMD of interest was monitored through β-galactosidase activity. In all cases, we saw that the TLRs have interaction potential solely from TMD-TMD interactions. Each TLR TMD interaction measurement analysis was performed on 3 technical replicates with >6 measurements for each replicate. Error bars depict the standard error of the mean (n – Table S1). Western blots staining for MBP were performed to monitor expression levels of the constructs – (B) chimeric maltose binding protein expression, (C) endogenous maltose binding protein expression. All samples were normalized to the GpA signal and expression levels.
Briefly, the ToxR plasmids containing the TMD of interest (200 ng) were transformed into chemically competent FHK12 E. coli (200 µL) by incubating on ice for 30 min, heat shock at 42°C for 90 s, incubation on ice for 2 min, and addition of SOC media (800 µL) followed by incubation with shaking for 1 h at 37°C. This transformation mixture (50 µL) was then spread on LB agar plates containing cholaramphenicol (30 µg/mL) and ampicillin (100 µg/mL) and grown overnight at 37°C. Single colonies were selected from the plates in triplicate and added to 5 mL of LB media containing cholaramphenicol (30 µg/mL), ampicillin (100 µg/mL), and arabinose (0.0025%). These cultures were incubated overnight (16–20 h) with shaking at 37°C. The β-galactosidase activity was monitored using a Beckman Coulter DTX 880 plate-reader. First 5 µL of each culture was plated >6 times in a clear 96-well flat bottom culture plate (Sarstedt) containing 100 µL of Z-buffer/chloroform (1% β-mercaptoethanol, 10% chloroform, 89% Z buffer: […], 10 mM potassium chloride, 1 mM magnesium sulfate, pH 7.0). The cell densities of each well were recorded by measuring the OD595. Bacteria were lysed by the addition of 50 µL Z-buffer/SDS (1.6% sodium dodecyl sulfate w/v in Z-buffer) and shaking at 28°C for 10 min. Enzymatic activity was measured by adding 50 µL of Z-buffer/ortho-Nitrophenyl-β-[…] (ONPG) (0.4% ONPG w/v in Z-buffer) and monitoring the reaction at 405 nm for a period of 20 min at 30 s intervals. Miller units were calculated using the equation: [drawing 1]
Western blotting was performed with antiserum recognizing the maltose-binding protein moiety of the constructs (Abcam). Data were normalized to GpA Miller Units and protein expression levels using ImageJ (NIH) as reported previously.

[2] = Circular dichroism, helical content by CDNN; format: physicochemical; conditions: CD, CDNN analysis; 5-10 µM peptide, 10 mM C14-betaine micelles, 20 mM HEPES pH 7.4, 25°C, average of 9 scans
Description: Figure 4 Circular Dichroism Spectra of TLR1, TLR2, and TLR6 Synthetic TMD Peptides. Far-UV spectra of the synthetic TMD peptides at concentrations ranging from 5–10 µM in the presence of 10 mM C14-betaine detergent micelles. Spectra were collected at 25°C with a step size of 1 nm and are the average of 9 scans. All peptides had helical content >99% (Table S11) as determined using CDNN [63].
CD measurements were performed on a ChirascanPlus spectrometer (Applied Photophysics) using a 1.0 mm path length quartz cuvette. Peptides and C14-Betaine (3-(N,N-Dimethylmyristylammonio)propanesulfonate: Sigma) were co-dissolved in 2,2,2-trifluoroethanol. The organic solvent was removed by drying to a thin film using N2 and further dried overnight under reduced pressure to remove all traces of TFE. Samples were resusupended in a 20 mM HEPES buffer, pH 7.4, yielding a final C14-Betaine concentration of 10 mM. Peptide concentrations were determined using Beer-Lambert law with coumarin absorbance at 400 nm using ε400 of 39,300 M^−1 cm^−1 [62] and FITC absorbance at 495 nm using ε495 of 68,000 M^−1 cm^−1 (Invitrogen). Peptides were prepared such that final concentrations were in the 5–10 µM range. All CD spectra were measured at 25°C with a step size of 1 nm and are reported as the average of 9 scans. Data were not collected below 200 nm due to the high voltage and background noise from the C14-Betaine buffer. Helical content was determined using CDNN [63].

Substance | Mean homotypic TMD interaction (ToxR) [1] | Helix content, 200-260 nm [2] | Helix content, 205-260 nm [2] | Helix content, 210-260 nm [2]
TLR2*: TLR2 TMD chimera with nonfunctional ToxR* domain (negative phenotype) (GNRASALVSGMCCALFLLILLTGVLCGSLIN; cysteine pairing not given here; also: fused to non-functional ToxR* (S87H) and maltose binding protein, ends not given here) | 0.7829 | 99.80% | 99.90% | 99.90%
TLR6*: TLR6 TMD chimera with nonfunctional ToxR* domain (negative phenotype) (GNRASITLLIVTIGATMLVLAVTVTSLCIYLGSLIN; also: fused to non-functional ToxR* (S87H) and maltose binding protein, ends not given here) | 0.5764 | 99.90% | 100.00% | 100.00%
TLR1*: TLR1 TMD chimera with nonfunctional ToxR* domain (negative phenotype) (GNRASITLLIVTIVATMLVLAVTVTSLCSYLGSLIN; also: fused to non-functional ToxR* (S87H) and maltose binding protein, ends not given here) | 0.4775 | 99.70% | 99.90% | 99.90%
